Data: patent US20090203595A1 (ZENSUN SHANGHAI SCIENCE AND TECHNOLOGY, published 2009)

Assays:
[1] = biological target: T1, ErbB2&ErbB3 co-expressed on COS7 cells (UniProt P04626 23-1255; P21860 20-1342, limits assumed); assay: receptor binding affinity assay on COS7 cells co-expressing ErbB2&ErbB3
T1 construct: whole, on cells; Both receptors are co-expressed on the same cells, and the numbers are for these cells, not for a single receptor; also called COS7 cells (ErbB2&ErbB3 co-expression)
Experimental: (§1) To study the receptor binding affinity of neuregulin and its mutations, ErbB2&ErbB3 or ErbB2&ErbB4 co-expressing COS7 are used. The cells are grown to 80% confluence. In the afternoon, after the cells reach 80% confluence, the media is changed to serum free media. Then, after 24 hours, the cells are harvested for receptor binding affinity assays.

[2] = biological target: T2, ErbB2&ErbB4 co-expressed on COS7 cells (UniProt P04626 23-1255; Q15303 26-1308, limits assumed); assay: competition of bound radiolabeled ligands on COS7 cells co-expressing ErbB2&ErbB4
T2 construct: whole, on cells; Both receptors are co-expressed on the same cells, and the numbers are for these cells, not for a single receptor; also called COS7 cells (ErbB2&ErbB4 co-expression)
Experimental: as §1

[3] = biological target: T2, ErbB2&ErbB4 co-expressed on COS7 cells; assay: receptor binding affinity assay on COS7 cells co-expressing ErbB2&ErbB4
Experimental: as §1

[4] = biological target: T1, ErbB2&ErbB3 co-expressed on COS7 cells; assay: competition of bound radiolabeled ligands on COS7 cells co-expressing ErbB2&ErbB3
Experimental: as §1

Kd [1]	EC50 [2]	Kd [3]	EC50 [4]	Binder
1.41 nM	132 nM	0.282 nM	113 nM	neuregulin (the 177-237 amino acids fragment of neuregulin1 β2) (ligand, also called NRG; NRG-1β) SHLVKCAEKEKTFCVNGGECFMVKDLSNPSRYLCKCPNEFTGDRCQNYVMASFYKAEELYQ
–	40.7 nM	–	149 nM	neuregulin variant D43A (ligand) SHLVKCAEKEKTFCVNGGECFMVKDLSNPSRYLCKCPNEFTGARCQNYVMASFYKAEELYQ
1.15 nM	–	1.06 nM	–	neuregulin variant L3A (ligand) SHAVKCAEKEKTFCVNGGECFMVKDLSNPSRYLCKCPNEFTGDRCQNYVMASFYKAEELYQ
